Laboratory results published in US20110300138A1 (published 2011).
Each block holds one molecule with its values, some of them ahead of it.

Columns and labels:
TSHR260 [1] = target: T1, TSHR260 (human, UniProt P16473 22-260); experiment: ELISA on 14C4 F(ab')2 captured preparation; TSHR260 kept 48 hours at room temperature
T1 construct: Expressed in insect cells; coated on tubes or wells by way of a mouse TSHR MAb (14C4 F(ab')2 in the stability ELISA); also called TSHR fragment of amino acids 22-260

TSHR LRD C-CAP (human) [2] = target: TSHR LRD C-CAP (human) (UniProt P16473); experiment: ELISA on 14C4 F(ab')2 captured preparation; untreated TSHR LRD C-CAP
[3] = target: full length human TSHR, detergent-solubilised, coated on tubes or ELISA plate wells (human) (UniProt P16473); experiment: ELISA on 14C4 F(ab')2 captured preparation; preparation kept 24 hours at room temperature
[4] = target: full length human TSHR, detergent-solubilised, coated on tubes or ELISA plate wells (human) (UniProt P16473); experiment: ELISA on 14C4 F(ab')2 captured preparation; preparation kept 48 hours at room temperature
[5] = target: TSHR260-alkaline phosphatase (human); experiment: ELISA on 14C4 F(ab')2 captured preparation; TSHR260-AP kept 24 hours at room temperature
[6] = target: full length human TSHR, detergent-solubilised, coated on tubes or ELISA plate wells (human) (UniProt P16473); experiment: ELISA: TSHR preparation captured on 14C4 F(ab')2 coated wells, M22 Fab-peroxidase binding; preparation stored at -80 C (untreated)
TSHR LRD C-CAP (human) [7] = target: TSHR LRD C-CAP (human) (UniProt P16473); experiment: ELISA on 14C4 F(ab')2 captured preparation; TSHR LRD C-CAP kept 48 hours at room temperature
TSHR LRD C-CAP (human) [8] = target: TSHR LRD C-CAP (human) (UniProt P16473); experiment: ELISA on 14C4 F(ab')2 captured preparation; TSHR LRD C-CAP kept 24 hours at room temperature
[9] = target: TSHR260-alkaline phosphatase (human); experiment: ELISA on 14C4 F(ab')2 captured preparation; untreated TSHR260-AP
TSHR260 [10] = target: T1, TSHR260; experiment: ELISA on 14C4 F(ab')2 captured preparation; untreated TSHR260
TSHR260 [11] = target: T1, TSHR260; experiment: ELISA on 14C4 F(ab')2 captured preparation; TSHR260 kept 24 hours at room temperature
[12] = target: TSHR260-alkaline phosphatase (human); experiment: ELISA on 14C4 F(ab')2 captured preparation; TSHR260-AP kept 48 hours at room temperature
[13] = target: TSH receptor (full length human TSHR) coated on tubes (human) (UniProt P16473); experiment: 125I-TSH binding to TSHR coated tubes, in HBD pool
[14] = target: TSH receptor (full length human TSHR) coated on tubes (human) (UniProt P16473); experiment: 125I-TSH binding to TSHR coated tubes, in assay buffer
[15] = target: TSH receptor (full length human TSHR) coated on tubes (human) (UniProt P16473); experiment: 125I-TSH binding inhibition, TSHR coated tubes; 4 units/L in assay buffer
[16] = target: TSH receptor (full length human TSHR) coated on tubes (human) (UniProt P16473); experiment: 125I-TSH binding inhibition, TSHR coated tubes; 0.25 units/L in serum
[17] = target: TSH receptor (full length human TSHR) coated on tubes (human) (UniProt P16473); experiment: 125I-TSH binding inhibition, TSHR coated tubes; 8 units/L in serum
[18] = target: TSH receptor (full length human TSHR) coated on tubes (human) (UniProt P16473); experiment: 125I-TSH binding inhibition, TSHR coated tubes; 40 units/L in serum
[19] = target: TSH receptor (full length human TSHR) coated on tubes (human) (UniProt P16473); experiment: 125I-TSH binding inhibition, TSHR coated tubes; 0.5 units/L in assay buffer
[20] = target: TSH receptor (full length human TSHR) coated on tubes (human) (UniProt P16473); experiment: 125I-TSH binding inhibition, TSHR coated tubes; 2 units/L in assay buffer
[21] = target: TSH receptor (full length human TSHR) coated on tubes (human) (UniProt P16473); experiment: 125I-TSH binding inhibition, TSHR coated tubes; 0.25 units/L in assay buffer
[22] = target: TSH receptor (full length human TSHR) coated on tubes (human) (UniProt P16473); experiment: 125I-TSH binding inhibition, TSHR coated tubes; 1 unit/L in serum
[23] = target: TSH receptor (full length human TSHR) coated on tubes (human) (UniProt P16473); experiment: 125I-TSH binding inhibition, TSHR coated tubes; 40 units/L in assay buffer
[24] = target: TSH receptor (full length human TSHR) coated on tubes (human) (UniProt P16473); experiment: 125I-TSH binding inhibition, TSHR coated tubes; 8 units/L in assay buffer
[25] = target: TSH receptor (full length human TSHR) coated on tubes (human) (UniProt P16473); experiment: 125I-TSH binding inhibition, TSHR coated tubes; 0.125 units/L in serum
[26] = target: TSH receptor (full length human TSHR) coated on tubes (human) (UniProt P16473); experiment: 125I-TSH binding inhibition, TSHR coated tubes; 1 unit/L in assay buffer
[27] = target: TSH receptor (full length human TSHR) coated on tubes (human) (UniProt P16473); experiment: 125I-TSH binding inhibition, TSHR coated tubes; 0.5 units/L in serum
[28] = target: TSH receptor (full length human TSHR) coated on tubes (human) (UniProt P16473); experiment: 125I-TSH binding inhibition, TSHR coated tubes; 4 units/L in serum
[29] = target: TSH receptor (full length human TSHR) coated on tubes (human) (UniProt P16473); experiment: 125I-TSH binding inhibition, TSHR coated tubes; 0.125 units/L in assay buffer
[30] = target: TSH receptor (full length human TSHR) coated on tubes (human) (UniProt P16473); experiment: 125I-TSH binding inhibition, TSHR coated tubes; 2 units/L in serum
[31] = target: T2, human TSH receptor, full length, detergent-solubilised, coated on tubes or ELISA plate wells (human, UniProt P16473 22-764); experiment: TSHR binding affinity (summary table; Scatchard analysis, TSHR coated tubes)
T2 construct: Full length recombinant receptor expressed in CHO cells, solubilised and coated via a C-terminal antibody; also called wild type TSHR; full length TSHR

[32] = target: T3, full length human TSHR, detergent-solubilised, coated on tubes or ELISA plate wells (human, UniProt P16473 22-764); experiment: inhibition of 125I-TSH binding to TSHR coated tubes, dilutions in assay buffer
T3 construct: Full length receptor expressed in CHO cells, solubilised with detergent and held on the plastic by a mouse MAb to the C-terminus; The leader 1-21 is stated for the TSHR260 construct of the same receptor; also called TSH receptor; TSHR (full length)
Description: Binding inhibition assays were carried out using TSHR coated tubes as described in WO2004/050708A2. […] After aspiration, the tubes were washed and 100 μL of ¹²⁵I-labelled protein (5×10⁴ cpm) added and incubated for 1 hour at room temperature with shaking. The tubes were then aspirated, washed and counted in a gamma counter. Inhibition of labelled protein binding was calculated as 100×[1−(cpm bound in the presence of test material/cpm bound in the presence of control material)].

[33] = target: human TSHR on transfected CHO cells (human, UniProt P16473 22-764); experiment: cell-based or functional assay
TSHR260 [34] = target: T1, TSHR260; experiment: Scatchard analysis, TSHR260 coated tubes (mean±SD, n=3)
[35] = target: T3, full length human TSHR, …; experiment: Scatchard analysis, 125I-labelled antibody on full length TSHR coated tubes (mean±SD, n=3)
[36] = target: T3, full length human TSHR, …; experiment: inhibition of 125I-TSH binding to TSHR coated tubes, dilutions in HBD sera

Molecule: 125I-labelled TSH (ligand)
- % binding [13]: 12.9%
- % binding [14]: 12.6%

Molecule: Thyroid Stimulating Autoantibody reference preparation NIBSC 90/672
- Inhibition of binding (%) [15]: 53.3%
- Inhibition of binding (%) [16]: 3.5%
- Inhibition of binding (%) [17]: 63.2%
- Inhibition of binding (%) [18]: 90%
- Inhibition of binding (%) [19]: 2.8%
- Inhibition of binding (%) [20]: 27.2%
- Inhibition of binding (%) [21]: 0.9%
- Inhibition of binding (%) [22]: 15.5%
- Inhibition of binding (%) [23]: 90.9%
- Inhibition of binding (%) [24]: 62.2%
- Inhibition of binding (%) [25]: 2.4%
- Inhibition of binding (%) [26]: 14.1%
- Inhibition of binding (%) [27]: 9.3%
- Inhibition of binding (%) [28]: 49.2%
- Inhibition of binding (%) [29]: 5.1%
- Inhibition of binding (%) [30]: 22.9%

B1: K1-70 IgG (human monoclonal TSHR autoantibody with blocking activity) (antibody, V domains shown)
VH: EVQLVQSGAEVKKPGQSLKISCKASGYSLTDNWIGWVRQKPGKGLEWMGIIYPGDSDTRYSPSFQGQVTISADKSINTAYLQWSSLKASDTAIYYCVGLDWNYNPLRYWGPGTLVTVSS
VL: QSVLTQPPSVSAAPGQKVTISCSGSSSDIGSNYVSWYQQFPGTAPKLLIYDNNKRPSAIPDRFSGSKSGTSATLGITGLQTGDEADYYCGTWDSRLGIAVFGGGTQLTVLG
notes: IgG1 lambda purified from hetero-hybridoma supernatant
- Ka [31]: 3.9e+10 M⁻¹

The next lines start with the values.

- OD450 nm (TSHR260 [1]): 1.68 OD450 nm
- OD450 nm (TSHR LRD C-CAP (human) [2]): 1.83 OD450 nm
- OD450 nm [3]: 0.268 OD450 nm
- OD450 nm [4]: 0.126 OD450 nm
- OD450 nm [5]: 2.11 OD450 nm
- OD450 nm [6]: 1.75 OD450 nm
- OD450 nm (TSHR LRD C-CAP (human) [7]): 1.16 OD450 nm
- OD450 nm (TSHR LRD C-CAP (human) [8]): 1.16 OD450 nm
- OD450 nm [9]: 2.4 OD450 nm
- OD450 nm (TSHR260 [10]): 2.29 OD450 nm
- OD450 nm (TSHR260 [11]): 1.84 OD450 nm
- OD450 nm [12]: 1.98 OD450 nm
Molecule: M22 Fab-peroxidase conjugate

- fold activity in inhibition of TSH binding against K1 donor serum IgG [32]: 4700 times
- potency of TSHR cyclic AMP stimulation, M22 against K1-18 [33]: ~1.5 fold
- Ka (TSHR260 [34]): 5.9e+09 M⁻¹
- Ka [35]: 6.7e+09 M⁻¹
- fold activity in inhibition of TSH binding against K1 donor serum IgG [36]: 6600 times
B2: K1-18 IgG (antibody, V domains shown)
VH: EVQLVQSGAEVKKPGESLKISCKGSGYSFTNYWIGWVRQMPGKGLEWMGIIYPYDSDTRYSPSFEGQVTISADKSIRTAYLHWSSLKASDTAMYYCVRPRDGSYPYDAFDIWGQGTMVTVSS
VL: EIVLTQSPGTLSLSPGERATLSCRASQSVSNNYLAWYQQKPGQAPRLLIYGASSRATGIPDRFSGSGSGTDFTLTISRLEPEDFAVYYCQHCGSSLRAFGQGTKVEIKR
notes: Human IgG1 kappa purified from hetero-hybridoma supernatant; also called human MAb K1-18
